Laboratory results taken from patent publication US20230212319A1, “NOVEL ANTIGEN BINDING DOMAINS AND SYNTHETIC ANTIGEN RECEPTORS INCORPORATING THE SAME” (University of Southern California, priority 2020, published 2023).

Legend:
Type in all cases: cell-based
[1] = system: RS;411; assay: JNG assay, co-culture with RS;411 cells; conditions: co-culture with RS411
Procedure, shortened: (§1)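 Jurkat NFAT-GFP (JNG) cells stably transduced with SARs by lentivirus, with drug selection where the construct carried a resistance gene, then co-cultured with target cells at E:T ~1:2 for ~4–18 h. % GFP-positive cells measured by FACS against parental JNG; +/- to 5+ correspond to ~5–50% GFP-positive.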

[2] = system: RAJI-CD19-KO cells; assay: JNG assay, co-culture with RAJI-CD19-KO cells; conditions: co-culture with Raji-CD19-KO
Procedure, shortened: as §1

[3] = system: RAJI cells; assay: JNG assay, co-culture with RAJI cells; conditions: co-culture with Raji
Procedure, shortened: as §1

[4] = system: L363 cells; assay: JNG assay, co-culture with L363 cells; conditions: co-culture with L363
Procedure, shortened: as §1

[5] = system: Nalm6 cells; assay: JNG assay, co-culture with Nalm6 cells; conditions: co-culture with Nalm6
Procedure, shortened: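 Jurkat NFAT-GFP reporter cells stably expressing lentivirally transduced SARs, drug-selected where possible, were co-cultured with target cells at E:T ≈1:2 for ~4–18 h. GFP measured by FACS; scored +/- to 5+ (~5–50% GFP+ cells) above parental reporter cells.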

B1: 22114 (protein)
chain: MALPVTALLLPLALLLHAARPDIQMTQSPSSLSASVGDRVTITCKASDHINNWLAWYQQKPGQAPKLLIYGATTLETGVPSRFSGSGSGTDYTLTISSLQPEDFATYYCQQSWNTPWTFGQGTKLEIKRLEIQNPDPAVYQLRDSKSSDKSVCLFTDFDSQTNVSQSKDSDVYITDKCVLDMRSMDFKSNSAVAWSNKSDFACANAFNNSIIPEDTFFPSSDVPCDVKLVEKSFETDTNLNFQNLSVIGFRILLLKVAGFNLLMTLRLWSSRAKRSGSGVKQTLNFDLLKLAGDVESNPGPTSATMDWIWRILFLVGAATGAHSGPQVQLQESGGGLAQAGGSLRLSCAASGRTFSMGWFRQAPGKEREFVAAITYSGGSPYYASSVRGRFTISRDNAKNTVYLQMNSLKPEDTAVYYCAANPTYGSDWNAENWGQGTQVTVSSGSGGGGSGGGGSGGGGSFEQVQLQQPGAELVKPGASVKMSCKASGYAFSSYWINWMKQKPGQGLEWIGQIYPGDGDTNYNGKFKGRATLTADTSSSTAYMQLSSLTSEDSAVYFCARSITTVVGCAMDYWGQGTSVTVSSTREDLKNVFPPEVAVFEPSKAEIAHTQKATLVCLATGFYPDHVELSWWVNGKEVHSGVCTDPQPLKEQPALNDSRYCLSSRLRVSATFWQNPRNHFRCQVQFYGLSENDEWTQDRAKPVTQIVSAEAWGRADCGITSASYHQGVLSATILYEILLGKATLYAVLVSALVLMAMVKRKDSRGRAKRSGSGATNFSLLKQAGDVEENPGPSRGHMTEYKPTVRLATRDDVPRAVRTLAAAFADYPATRHTVDPDRHIERVTELQELFLTRVGLDIGKVWVADDGAAVAVWTTPESVEAGAVFAEIGPRMAELSGSRLAAQQQMEGLLAPHRPKEPAWFLATVGVSPDHQGKGLGSAVVLPGVEAAERAGVPAFLETSAPRNLPFYERLGFTVTADVEVPEGPRTWCMTRKPGA
For B1, the “NFAT-GFP ASSAY: RS411” value [1] was 5+ (refer to approximately 5%, 10%, 20%, 30%, 40% and 50% GFP positive cells) and the “NFAT-GFP ASSAY: Raji-CD19-KO” value [2] was 5+ (refer to approximately 5%, 10%, 20%, 30%, 40% and 50% GFP positive cells).

B2: CD8SP-BCMA-FHVH-93-G4S-CD19-MOR0028-scFv-hCD8TM-BBZ-T2A-PAC (protein)
chain: ACEVQLLESGGGLIQPGGSLRLSCAASGFTFSSHAMTWVRQAPGKGLEWVSAISGSGDYTHYADSVKGRFTISRDNSKNTVYLQMNSLRAEDSAVYYCAKDEDGGSLLGHRGQGTLVTVSSGTGGGGSGGGGSGGGGSEFINIYNAEPANPSEKNSPEFDIVMTQSPATLSLSPGERATLSCRSSKSLQNVNGNTYLYWFQQKPGQSPQLLIYRMSNLNSGVPDRFSGSGSGTEFTLTISSLEPEDFAVYYCMQHLEYPITFGAGTKLEIKGGGGSGGGGSGGGGSEVQLVESGGGLVKPGGSLKLSCAASGYTFTSYVMHWVRQAPGKGLEWIGYINPYNDGTKYNEKFQGRVTISSDKSISTAYMELSSLRSEDTAMYYCARGTYYYGTRVFDYWGQGTLVTVSSTRTTTPAPRPPTPAPTIASQPLSLRPEACRPAAGGAVHTRGLDFACDIYIWAPLAGTCGVLLLSLVITLYCKRGRKKLLYIFKQPFMRPVQTTQEEDGCSCRFPEEEEGGCELRVKFSRSADAPAYQQGQNQLYNELNLGRREEYDVLDKRRGRDPEMGGKPRRKNPQEGLYNELQKDKMAEAYSEIGMKGERRRGKGHDGLYQGLSTATKDTYDALHMQALPPRSSGSGEGRGSLLTCGDVEENPGPHMTEYKPTVRLATRDDVPRAVRTLAAAFADYPATRHTVDPDRHIERVTELQELFLTRVGLDIGKVWVADDGAAVAVWTTPESVEAGAVFAEIGPRMAELSGSRLAAQQQMEGLLAPHRPKEPAWFLATVGVSPDHQGKGLGSAVVLPGVEAAERAGVPAFLETSAPRNLPFYERLGFTVTADVEVPEGPRTWCMTRKPGA
With B2 the “NFAT-GFP ASSAY (JNG): GFP induction, Raji” value [3] was 4+ (refer to approximately 5%, 10%, 20%, 30%, 40% and 50% GFP positive cells), the “NFAT-GFP ASSAY (JNG): GFP induction, RS411” value [1] was 5+ (refer to approximately 5%, 10%, 20%, 30%, 40% and 50% GFP positive cells) and the “NFAT-GFP ASSAY (JNG): GFP induction, Raji-CD19-KO” value [2] was 3+ (refer to approximately 5%, 10%, 20%, 30%, 40% and 50% GFP positive cells).

B3: 22226 (protein)
chain: MALPVTALLLPLALLLHAARPACEVQLLESGGGLIQPGGSLRLSCAASGFTFSSHAMTWVRQAPGKGLEWVSAISGSGDYTHYADSVKGRFTISRDNSKNTVYLQMNSLRAEDSAVYYCAKDEDGGSLLGHRGQGTLVTVSSGTGPQGIFGQPGYINEFDIQMTQSPSSLSASVGDRVTITCKASDHINNWLAWYQQKPGQAPKLLIYGATTLETGVPSRFSGSGSGTDYTLTISSLQPEDFATYYCQQSWNTPWTFGQGTKLEIKRLEDLKNVFPPEVAVFEPSKAEIAHTQKATLVCLATGFYPDHVELSWWVNGKEVHSGVCTDPQPLKEQPALNDSRYCLSSRLRVSATFWQNPRNHFRCQVQFYGLSENDEWTQDRAKPVTQIVSAEAWGRADCGITSASYHQGVLSATILYEILLGKATLYAVLVSALVLMAMVKRKDSRGRAKRSGSGATNFSLLKQAGDVEENPGPTSATMDWIWRILFLVGAATGAHSGPEVQLVESGGGLVQAGGSLRLSCAASGRTFSMGWFRQAPGKEREFVAAITYSGGSPYYADSVKGRFTISRDNAKNTVYLQMNSLKPEDTAVYYCAANPTYGSDWNAENWGQGTQVTVSSGSGGGGSGGGGSGGGGSFEQVQLQQPGAELVKPGASVKMSCKASGYAFSSYWINWMKQKPGQGLEWIGQIYPGDGDTNYNGKFKGRATLTADTSSSTAYMQLSSLTSEDSAVYFCARSITTVVGCAMDYWGQGTSVTVSSTRIQNPDPAVYQLRDSKSSDKSVCLFTDFDSQTNVSQSKDSDVYITDKCVLDMRSMDFKSNSAVAWSNKSDFACANAFNNSIIPEDTFFPSPESSCDVKLVEKSFETDTNLNFQNLSVIGFRILLLKVAGFNLLMTLRLWSSRAKRSGSGVKQTLNFDLLKLAGDVESNPGPSRGHMTEYKPTVRLATRDDVPRAVRTLAAAFADYPATRHTVDPDRHIERVTELQELFLTRVGLDIGKVWVADDGAAVAVWTTPESVEAGAVFAEIGPRMAELSGSRLAAQQQMEGLLAPHRPKEPAWFLATVGVSPDHQGKGLGSAVVLPGVEAAERAGVPAFLETSAPRNLPFYERLGFTVTADVEVPEGPRTWCMTRKPGA
B3 was tested, and the “NFAT-GFP ASSAY: Raji” value ([3]; JNG cells expressing construct) was “+/- (refer to approximately 5%, 10%, 20%, 30%, 40% and 50% GFP positive cells)”, the “NFAT-GFP ASSAY: L363” value [4] was “+ (refer to approximately 5%, 10%, 20%, 30%, 40% and 50% GFP positive cells)” and the “NFAT-GFP ASSAY: RS411” value [1] was “+/- (refer to approximately 5%, 10%, 20%, 30%, 40% and 50% GFP positive cells)”. The “NFAT-GFP ASSAY: Nalm6” value [5] was “+ (refer to approximately 5%, 10%, 20%, 30%, 40% and 50% GFP positive cells)”.
